According to IntAct's records for PubMed 17517630:

B1: Rho GTPase-activating protein 7 (Homo sapiens), Q96QB1-1 (parent)
chain: MCRKKPDTMILTQIEAKEACDWLRATGFPQYAQLYEDFLFPIDISLVKREHDFLDRDAIEALCRRLNTLNKCAVMKLEISPHRKRSDDSDEDEPCAISGKWTFQRDSKRWSRLEEFDVFSPKQDLVPGSPDDSHPKDGPSPGGTLMDLSERQEVSSVRSLSSTGSLPSHAPPSEDAATPRTNSVISVCSSSNLAGNDDSFGSLPSPKELSSFSFSMKGHEKTAKSKTRSLLKRMESLKLKSSHHSKHKAPSKLGLIISGPILQEGMDEEKLKQLNCVEISALNGNRINVPMVRKRSVSNSTQTSSSSSQSETSSAVSTPSPVTRTRSLSACNKRVGMYLEGFDPFNQSTFNNVVEQNFKNRESYPEDTVFYIPEDHKPGTFPKALTNGSFSPSGNNGSVNWRTGSFHGPGHISLRRENSSDSPKELKRRNSSSSMSSRLSIYDNVPGSILYSSSGDLADLENEDIFPELDDILYHVKGMQRIVNQWSEKFSDEGDSDSALDSVSPCPSSPKQIHLDVDNDRTTPSDLDSTGNSLNEPEEPSEIPERRDSGVGASLTRSNRHRLRWHSFQSSHRPSLNSVSLQINCQSVAQMNLLQKYSLLKLTALLEKYTPSNKHGFSWAVPKFMKRIKVPDYKDRSVFGVPLTVNVQRTGQPLPQSIQQAMRYLRNHCLDQVGLFRKSGVKSRIQALRQMNEGAIDCVNYEGQSAYDVADMLKQYFRDLPEPLMTNKLSETFLQIYQYVPKDQRLQAIKAAIMLLPDENREVLQTLLYFLSDVTAAVKENQMTPTNLAVCLAPSLFHLNTLKRENSSPRVMQRKQSLGKPDQKDLNENLAATQGLAHMIAECKKLFQVPEEMSRCRNSYTEQELKPLTLEALGHLGNDDSADYQHFLQDCVDGLFKEVKEKFKGWVSYSTSEQAELSYKKVSEGPPLRLWRSVIEVPAVPEEILKRLLKEQHLWDVDLLDSKVIEILDSQTEIYQYVQNSMAPHPARDYVVLRTWRTNLPKGACALLLTSVDHDRAPVVGVRVNVLLSRYLIEPCGPGKSKLTYMCRVDLRGHMPEWYTKSFGHLCAAEVVKIRDSFSNQNTETKDTKSR

Variants of: B1
Settings: with tens1_chick TNS1, Q04205
Sequence of tens1_chick TNS1, Q04205 (Q04205 whole entry): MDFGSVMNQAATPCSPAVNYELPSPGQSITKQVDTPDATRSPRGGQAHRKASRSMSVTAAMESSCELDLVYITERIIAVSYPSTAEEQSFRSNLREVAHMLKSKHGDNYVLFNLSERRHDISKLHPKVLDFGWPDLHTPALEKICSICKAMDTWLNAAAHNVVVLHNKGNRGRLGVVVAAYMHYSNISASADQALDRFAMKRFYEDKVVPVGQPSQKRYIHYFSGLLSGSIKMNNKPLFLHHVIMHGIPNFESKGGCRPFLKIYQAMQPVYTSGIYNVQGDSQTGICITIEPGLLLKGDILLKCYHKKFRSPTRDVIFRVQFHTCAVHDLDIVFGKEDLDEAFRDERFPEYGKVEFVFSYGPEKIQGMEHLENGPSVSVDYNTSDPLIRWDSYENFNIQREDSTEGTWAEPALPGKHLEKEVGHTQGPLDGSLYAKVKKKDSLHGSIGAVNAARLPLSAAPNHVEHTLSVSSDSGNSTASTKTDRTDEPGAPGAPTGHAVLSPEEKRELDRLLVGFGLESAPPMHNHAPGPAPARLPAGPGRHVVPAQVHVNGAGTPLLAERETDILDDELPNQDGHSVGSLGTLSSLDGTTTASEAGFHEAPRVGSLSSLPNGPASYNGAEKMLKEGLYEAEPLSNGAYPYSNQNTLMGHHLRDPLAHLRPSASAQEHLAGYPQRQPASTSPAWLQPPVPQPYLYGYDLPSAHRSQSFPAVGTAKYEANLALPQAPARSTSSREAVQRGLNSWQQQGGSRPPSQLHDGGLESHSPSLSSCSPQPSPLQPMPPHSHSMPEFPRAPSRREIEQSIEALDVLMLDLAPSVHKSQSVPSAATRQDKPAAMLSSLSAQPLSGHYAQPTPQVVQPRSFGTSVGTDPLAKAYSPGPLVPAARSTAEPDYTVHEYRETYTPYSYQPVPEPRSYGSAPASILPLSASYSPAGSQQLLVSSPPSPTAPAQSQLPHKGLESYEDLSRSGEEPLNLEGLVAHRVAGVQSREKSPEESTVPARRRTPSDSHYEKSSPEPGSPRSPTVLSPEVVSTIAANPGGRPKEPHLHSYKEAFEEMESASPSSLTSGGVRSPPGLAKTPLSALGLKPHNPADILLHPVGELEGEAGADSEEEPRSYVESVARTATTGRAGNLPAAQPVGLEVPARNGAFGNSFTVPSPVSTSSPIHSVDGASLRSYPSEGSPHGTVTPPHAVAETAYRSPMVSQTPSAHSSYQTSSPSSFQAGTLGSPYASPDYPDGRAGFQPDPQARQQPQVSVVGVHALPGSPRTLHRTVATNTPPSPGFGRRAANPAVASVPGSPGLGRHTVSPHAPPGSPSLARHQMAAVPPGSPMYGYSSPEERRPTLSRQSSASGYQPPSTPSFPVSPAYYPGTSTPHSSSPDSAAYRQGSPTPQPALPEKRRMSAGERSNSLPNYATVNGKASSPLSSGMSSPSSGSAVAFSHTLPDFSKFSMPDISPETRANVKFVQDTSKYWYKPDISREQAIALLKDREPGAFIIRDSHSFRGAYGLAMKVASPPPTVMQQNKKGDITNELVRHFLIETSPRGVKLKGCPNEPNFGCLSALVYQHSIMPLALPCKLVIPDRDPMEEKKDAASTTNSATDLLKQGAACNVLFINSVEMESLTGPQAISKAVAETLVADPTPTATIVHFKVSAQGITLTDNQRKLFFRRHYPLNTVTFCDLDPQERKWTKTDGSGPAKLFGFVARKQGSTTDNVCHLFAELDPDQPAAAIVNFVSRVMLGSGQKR

Row | effect of a mutation on the interaction | Variant
1 | disrupting interaction strength | Y442F
